According to patent publication US20110159050A1, “AMPHIPHILIC PROTEINS AS MORPHOLOGY MODIFIERS” (BASF SE, priority 2008, published 2011):
“Also recorded” adds a separate entry of the source.

Tests used:
[1] = Crystallisation of Atorvastatin by evaporation in dishes, microscopic inspection; type: physicochemical; details: Atorvastatin in water/acetonitrile, 100 ppm hydrophobin, vs hydrophobin-free control
Experimental: a) 15 g of Atorvastatin (Ciba) are dissolved in 75 mL pure water and 75 mL acetonitrile by heating to 50° C. and stirring for 2 h. The resulting solution is filtered (0.45 μm). Aliquots of 10 mL are transferred into 15 mL sealable polypropylene tubes that have been pre-heated to 50° C. in order to prevent the onset of crystallization. To assure uniform temperature, the tubes are shaken for 15-30 min at 50° and 750 rpm on a thermomixer (Eppendorf Thermomixer Comfort), then 100 μL of the protein solution (prepared according to the method given in example 1) is added (final concentration: 100 ppm). Control samples are treated in the same way except that 100 μL of pure water are added instead of the hydrophobin solution, or no API is present.
1 mL of each sample is poured into dishes (Ø5 cm) in order to allow crystallization by evaporation. The dried crystals (˜20 h later) are microscopically inspected.

[2] = Atorvastatin crystallisation by evaporation on protein-coated object slides; type: physicochemical; details: object slides coated with protein (100 μg protein/mL over night), vs non-coated control
Experimental: b) In a further set of tests, object slides are coated with protein by incubation in a solution as prepared according to the method given in example 1 (100 μg protein/mL) over night. The object slides then are washed and air dried before 50 μL of Atorvastatin solution as described above is coated on the slide.

[3] = Crystallisation of paracetamol in presence of hydrophobins (cooling from 95° C. to RT, visual assessment); type: physicochemical; details: 100 ppm protein; for visual assessment after 0 min (protein without API; no clouding = no denaturation): no API present, 95° C.; for visual assessment after 0 min / visual assessment <5 min: paracetamol present; for visual assessment after 0 min: after injection at 95° C.; for visual assessment <5 min: cooling at RT
Experimental: The hydrophobin solution is prepared by solubilization of 10 mg of lyophilized powder (protein content at least 60-80%) in 1 mL pure water. Insoluble residues are removed by centrifugation.
15 g of API (Paracetamol, Sigma) are dissolved in 150 mL pure water. Aliquots of 10 mL of the resulting solution are transferred into 15 mL sealable polypropylene tubes that have been pre-heated to 95° C. in order to prevent the onset of crystallization. To ensure uniform temperature, the tubes are shaken for 15-30 min at 95° and 750 rpm on a thermomixer (Eppendorf Thermomixer Comfort), then 100 μL of the hydrophobin solution is added under continued mixing at 95° C.; final protein concentration in the sample is 100 ppm. After 1-2 min the tubes are withdrawn from the thermomixer to allow cooling without shaking at RT. Control samples are treated in the same way except that 100 μL of pure water are added instead of the hydrophobin solution, or no API is present.

[4] = Crystallisation and redispersion of Venlafaxine (IPA, visual assessment); type: physicochemical; details: for re-suspension on pouring after vigorous shaking (Vortex) for 10-15 sec: Venlafaxine crystallized over night; for (RT) dispersability: Venlafaxine crystals
Experimental: 15 g of Venlafaxine (Ciba) are dissolved in 150 mL IPA. Aliquots of 10 mL of the resulting solution are transferred into 15 mL sealable polypropylene tubes that have been pre-heated to 95° C. To assure uniform temperature, the tubes are agitated for 15-30 min at 80° and 750 rpm on a thermomixer (Eppendorf Thermomixer Comfort), then 100 μL of the protein solution (prepared according to the method given in example 1) is added. Control samples are treated in the same way except that 100 μL of pure water are added instead of the hydrophobin solution, or no API is present.
(§1) The results of a visual assessment after the hydrophobin injection (final concentration in the sample is 100 ppm) are compiled in the following table.
The mother liquor crystallizes completely over night, with crystals adhering together covered by the solvent.

[5] = from 72; at 50 microgram/ml; cited from earlier work
[6] = Crystallisation of benzamide in presence of SC, PO, TT or TR (cooling, visual assessment); type: physicochemical; details: 100 ppm protein
Experimental: 15 g of benzamide (Fluke) are dissolved in 150 mL pure water. Aliquots of 10 mL of the resulting solution are transferred into 15 mL sealable polypropylene tubes that have been pre-heated to 95° C. in order to prevent the onset of crystallization. To assure uniform temperature, the tubes are shaken for 15-30 min at 95° and 750 rpm on a thermomixer (Eppendorf Thermomixer Comfort), then 100 μL of the hydrophobin solution (prepared according to the method given in example 1) is added (the tubes are still shaken to allow homogeneous mixing and tempering). After 1-2 min the tubes are withdrawn from the thermomixer to allow cooling without shaking at RT. Control samples are treated in the same way except that 100 μL of pure water are added instead of the hydrophobin solution, or no API is present.
as §1

[7] = Venlafaxine in IPA, 100 ppm protein

Molecule | crystal growth after crystallization by evaporation [1] | crystal growth by evaporation on coated glass surface [2] | visual assessment after 0 min (protein without API; no clouding = no denaturation) [3] | visual assessment after 0 min [3] | visual assessment <5 min [3] | crystal size 15 min ([3]; paracetamol) | crystal size >20 h ([3]; paracetamol) | re-suspension on pouring after vigorous shaking (Vortex) for 10-15 sec [4] | (RT) dispersability [4] | visual assessment 120 min [4, 7] | visual assessment after 0 min [4, 7] | crystal size 15 min [6] | crystal size <5 min [6] | crystal size >20 h [6] | visual assessment <5 min [6] | visual assessment after 0 min [6] | also measured
SC: class I hydrophobin from Schizophyllum commune, produced recombinantly in E. coli (protein, UniProt P16933 25-136, looked up, recombinant in E. coli) Class I hydrophobin SC3: GGHPGTTTPPVTTTVTVTTPPSTTTIAAGGTCTTGSLSCCNQVQSASSSPVTALLGLLGIVLSDLNVLVGISCSPLTVIGVGGSGCSAQTVCCENTQFNGLINIGCTPINIL | more evenly crystal growth | more regular crystal growth; also recorded: more evenly crystal growth | clear | streaks | clear | cryst. 0.1-0.2 mm | crystals 0.5 mm | complete emptying of the tubes | Best dispersability and best | crystals | streaks | crystals 0.1-0.2 mm | 0.1-0.2 mm | crystals 0.5-1 mm | few crystals | clouding | visual assessment 20 min [4, 7]: clear; visual assessment <5 min [4, 7]: clear; maximal lowering of the water surface tension [5]: 24 mJ m^−2
PO: class I hydrophobin from Pleurotus ostreatus, produced recombinantly in E. coli (protein, UniProt O60048 22-113, looked up, recombinant in E. coli) Class I hydrophobin POH3: IPRTNPPAPTCTTGSLQCCNSVQAASNPVVGLLAGLLGIVLGPITGQVGLTCSPITVIGVGGTSCSAQTVCCNGNSFNGLIVVGCSPVNISL | more evenly crystal growth | more regular crystal growth; also recorded: more evenly crystal growth | clear | clouding | few crystals | cryst. 0.2-0.5 mm | crystals 0.5-1 mm | predominantly the remaining mother liquor is poured out | poor | crystals | clouding | crystals 0.2-0.5 mm | 0.2-0.5 mm | crystals 0.5-1 mm | few crystals | clouding | crystal size <5 min ([3]; paracetamol): 0.2-0.5 mm; crystal size 20 min [4, 7]: crystals 0.2 mm; crystal size <5 min [4, 7]: crystals 0.1 mm
